According to the supplement of paper PMC10567573:
± gives the standard deviation.

Test: protein stability index of a GFP-peptide fusion (GPS, HEK-293T) (PSI 1-6); higher = more stable
[1] = treatment: DMSO, c terminus: a fixed tail appended
[2] = treatment: MLN4924 1 uM, 8 h, c terminus: a fixed tail appended
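Note: 24-mer peptide tiles fused after GFP, lentivirally expressed, FACS-sorted into six equal bins by GFP/DsRed ratio, decoded by Illumina sequencing, PSI is the read-weighted mean bin number.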

Sequence	protein stability index [1]	protein stability index [2]	protein stability index (treatment: DMSO, c terminus: native)	protein stability index (treatment: MLN4924 1 uM, 8 h, c terminus: native)
EVNSAEELEGLIADPDEMRMQALL [FEM1C]	4.89 ± 0.16	5 ± 0.3	–	–
AAGEQLQQQHVSCQVFPERLAQGN [ATP23]	4.47 ± 0.15	4.5 ± 0.28	–	–
VRRLQALRLEREEYVLLKALALAN [ESRRA]	2.18 ± 0.54	2.12 ± 0.31	–	–
LQSLRPHDEDIKTTNVKSASRQKT [ZNF396]	5.14 ± 0.089	5.04 ± 0.28	–	–
TQHWPIRLDGQQEPQPFVTSDVYS [MYORG]	3.56 ± 0.27	3.46 ± 0.22	–	–
SSSPASVTTEQLGAKMTERGSVAR [PXN]	4.86 ± 0.42	4.76 ± 0.59	–	–
RWLPEKRANPCLSSSNEHAAPAAK [ELOA2]	4.25 ± 0.18	4.08 ± 0.16	–	–
MAQYKGAASEAGRAMHLMKKREKQ [FAM50A]	4.7 ± 0.34	4.47 ± 0.4	–	–
AVIAQQRRKPDPPKDENERSTCNV [DLC1]	5.24 ± 0.21	5.12 ± 0.19	–	–
PSETGNTFVSGGCDKKAMVWDMRS [GNB5]	3.93 ± 0.16	3.75 ± 0.26	–	–
CLVCGDVASGYHYGVASCEACKAF [ESRRA]	3.96 ± 0.32	3.94 ± 0.23	–	–
NGRACEMNGEECAEDLRMLDASGE [IKZF1]	5.07 ± 0.51	5.36 ± 0.53	–	–
LLALAGAVQRLEGALWGLQAQAVQ [SCARA5]	3.33 ± 0.29	3.48 ± 0.14	–	–
CVLADRLDCADALLKAGADVNKTD [INVS]	4.4 ± 0.48	4.17 ± 0.42	–	–
VTVLEDLEKGLEPEPQVPGPAHGP [ZNF232]	4.99 ± 0.27	4.874 ± 0.039	–	–
KELADFIRERATIEETYSKAMAKL [FCHO1]	3.16 ± 0.21	3.31 ± 0.29	–	–
GIRKEDLDIVCERFTTSKLQSFED [MLH1]	3.6 ± 0.22	–	–	–
HYAVNSQFTMGGPAISMASPMSIP [CARM1]	2.63 ± 0.21	2.78 ± 0.24	–	–
TVSTSEVTSQQEPQIPVDRGSETT [TAF7L]	5.49 ± 0.12	5.44 ± 0.16	–	–
QQSQGWVHYMIHEPEPHILLFRRP [CKS1B]	2.11 ± 0.35	1.96 ± 0.22	–	–
RLRHYLGSRYDARRGVSDWDLRMK [DNAAF3]	2.19 ± 0.21	2.33 ± 0.33	–	–
YSLVLELSDSGAFRRSLHDPDGLV [APMAP]	2.28 ± 0.48	2.14 ± 0.38	–	–
LTQKRSQLVKKLNDSDHQSSTSPL [VPS39]	4.8 ± 0.23	4.69 ± 0.29	–	–

Sequence	protein stability index [1]	protein stability index [2]	protein stability index (treatment: DMSO, c terminus: native)	protein stability index (treatment: MLN4924 1 uM, 8 h, c terminus: native)
VSFVIHNLPIIAKMAAVSKASGRF [SEPHS2]	3.08 ± 0.29	2.75 ± 0.61	–	–
RAKGLLGTTVTFDDLMGILCKSVL [FEM1C]	2.76 ± 0.63	2.54 ± 0.22	–	–
VQIRRLEAAGESLEEEIRRKQILL [ZC2HC1C]	3.31 ± 0.37	3.45 ± 0.37	–	–
VNVSDRGGRTALHHAALNGHVEMV [ANKRD44]	3.39 ± 0.43	3.24 ± 0.093	–	–
VSMETYHVTLTLPPTQLEVNLEEI [C2CD2L]	2.34 ± 0.35	2.27 ± 0.31	–	–
NPIGHLPESLTKPDQVAPFTFLQP [ATF4]	3.56 ± 0.11	3.8 ± 0.49	–	–
YARYHQAFADRDQSERQRHESQQL [TEKT4]	2.83 ± 0.71	3.66 ± 0.64	–	–
KPAFIGKTNLDGMITVQLPEVPAN [PTPRD]	3.77 ± 0.16	3.81 ± 0.19	–	–
RLFQQSCPTGLVFSNSCKCCTWN [CHIT1]	–	–	2.37 ± 0.44	2.37 ± 0.28
ERQVLPDPEVLEAVGDRQDGLREQ [PBXIP1]	5.54 ± 0.26	5.64 ± 0.1	–	–
YQHLEEDMKSLKQVLEMKNQQIHE [MTUS2]	4.07 ± 0.11	4.27 ± 0.36	–	–
REESQHEIKDVLVWTNDQVVHWVQ [PPFIA4]	3.4 ± 0.37	3.97 ± 0.45	–	–
KGTPASKLILGMPTYGRSFTLASS [CHIT1]	2.47 ± 0.28	2.54 ± 0.21	–	–
EGQARCLAHLGRHMEALEIAANLE [C8orf76]	3.6 ± 0.42	3.74 ± 0.39	–	–
LRIPFPRDCGEEMQNGAGASRTST [TNXB]	4.02 ± 0.45	4.28 ± 0.79	–	–
LCEKEPLGNVLFSPICLSTSLSLA [SERPINB5]	2.13 ± 0.34	2.18 ± 0.34	–	–
NIYCLNCEVPTCSLCKVFGAHKDC [TRIM55]	3.11 ± 0.35	3.21 ± 0.48	–	–
HHFFCDIAPVLKLASHHNHFSQIV [OR10K2]	2.45 ± 0.45	2.67 ± 0.55	–	–
VSGSWERDQQVEAAQRALVEVLGP [RETREG3]	3.9 ± 0.33	4.08 ± 0.094	–	–
KINENVAAGMRFPLPEAIDPDVGV [PCDHGA10]	3.79 ± 0.081	4.26 ± 0.44	–	–
DKVLRFAQQIRLHHFNSSHLEIDD [MYORG]	2.93 ± 0.17	2.95 ± 0.23	–	–
YCYRCGNQAAIMELDDTLKYSFLQ [PPP2CA]	2.74 ± 0.58	2.58 ± 0.5	–	–
NVRDRDSGRNGEVSLDISPDLPFQ [PCDHGC5]	4.76 ± 0.42	4.59 ± 0.22	–	–

Sequence	protein stability index [1]	protein stability index [2]	protein stability index (treatment: DMSO, c terminus: native)	protein stability index (treatment: MLN4924 1 uM, 8 h, c terminus: native)
KELEARVRKPAEAERYKLERLAEA [FLOT1]	4.88 ± 0.29	4.95 ± 0.16	–	–
PLHNSGLLSLDPVQDKTPLYSQLL [MED27]	2.76 ± 0.27	2.92 ± 0.34	–	–
ADDHRYKFADNKWSVTGKAEPAMP [TBX5]	4.04 ± 0.17	4.2 ± 0.15	–	–
GSALTFREEQCAAYNHRTDLFKSF [ADAMTS4]	2.97 ± 0.17	2.88 ± 0.22	–	–
YGLKPLTPNSKYVKLNVGGSLHYT [KCTD13]	2.33 ± 0.23	2.49 ± 0.19	–	–
EIFGPVTCVVPFDSEEEVIERANN [ALDH8A1]	5.18 ± 0.17	5.17 ± 0.22	–	–
AELLKANEIIKKLQGDLKTLMGKL [SASS6]	2.36 ± 0.59	3.44 ± 0.66	–	–
LHLKRQPKRRWLFWNSPSSPSSSA [RHOBTB2]	2.27 ± 0.25	2.53 ± 0.21	–	–
AVQKTDEGHPFKAYLELEITLSQE [RTN1]	2.24 ± 0.24	2.56 ± 0.17	–	–
MQEFFGLKVTGKPDAETLKVMKQP [MMP1]	3.47 ± 0.15	3.53 ± 0.34	–	–
HYVAQTGILWLLMNNCFLNLSPRK [GAGE1]	2.72 ± 0.38	3.584 ± 0.027	–	–
VLLPETQKRQQLSEDTLTIHGLPT [C22orf31]	3.73 ± 0.092	3.88 ± 0.3	–	–
QQKQQIMAALNSQTAVQFQQYAAQ [ACBD3]	3.21 ± 0.17	3.27 ± 0.16	–	–
SRQRQSRMEKGEPYMSIQPAEDPD [SMARCE1]	5.55 ± 0.11	5.57 ± 0.33	–	–
KGRHHRGRGGEPRAYFMSDTREEK [CHGB]	4.93 ± 0.12	4.95 ± 0.096	–	–
TLKCLSHHVADAYTSSQKVSPIQI [TOR1AIP2]	2.53 ± 0.096	2.6 ± 0.37	–	–
MTNHQLSTTEWNDETLYQEFNGLK [CHIT1]	4.37 ± 0.4	4.56 ± 0.19	–	–
AFCNGQKLQVSQQEDITKSLLVTE [IMPA1]	3.69 ± 0.12	3.73 ± 0.27	–	–
DSFDKFDFCEPSFVTGNCLEISPD [PCMTD2]	4.36 ± 0.12	4.66 ± 0.46	–	–
ASRTWCFYNTEDIKDWEDRFYLLL [PTGFR]	2.15 ± 0.6	2.46 ± 0.38	–	–
LFLGRILSLTSSASRLLTTALTSF [FANCE]	2.44 ± 0.1	2.27 ± 0.19	–	–
LDNCVEVGRIANTYNLTEVDKYVN [KLHL13]	4.12 ± 0.17	3.94 ± 0.23	–	–
KGYPDGVKSIVVKGYNIWTGGPDA [TLE6]	2.68 ± 0.28	2.8 ± 0.49	–	–

Sequence	protein stability index [1]	protein stability index [2]	protein stability index (treatment: DMSO, c terminus: native)	protein stability index (treatment: MLN4924 1 uM, 8 h, c terminus: native)
AGNSTSGSRAGASSFSDPFFVVET [KCNA3]	3.75 ± 0.15	3.58 ± 0.27	–	–
HCHIEESEHVLKKAHKYSELIILY [VPS39]	2.21 ± 0.33	2.12 ± 0.3	–	–
ELKEKEATLCLEFLLQNDANPSIR [ANKRD44]	3.19 ± 0.096	3.25 ± 0.31	–	–
NRYGDVPCLDQTRVKLTKRSGHTQ [PTPN9]	3.96 ± 0.4	4.36 ± 0.26	–	–
HTTRSSLRGPRERAPSERSGPAAS [DVL3]	5.15 ± 0.24	4.75 ± 0.31	–	–
IETSALDSTNVEEAFKNILTEIYR [RAB11B]	2.41 ± 0.14	2.79 ± 0.29	–	–
APTSTCRTSVGVAVLGGFLYAVGG [KLHL20]	3.02 ± 0.94	2.71 ± 1.2	–	–
KEFILTDEEVQRKREMILKRKEEE [VDR]	5.33 ± 0.23	5.38 ± 0.23	–	–
NKLTTLPSDFCGLTHLVKLDLSKN [LRRC59]	2.37 ± 0.12	2.31 ± 0.14	–	–
AKIRAKIPGTGALASAAAAVSGSK [RTN2]	4.3 ± 0.15	4.64 ± 0.34	–	–
TKGVREVERALQLPREPGDSAQFT [FEM1A]	4.72 ± 0.23	4.76 ± 0.29	–	–
NWTVAFAPDGSYFAWSQGHRTVKL [WSB1]	2.42 ± 0.53	2.47 ± 0.44	–	–
YGFSLKTVQGKKGVYMTDITPQGV [PDZK1]	–	2.5 ± 0.68	–	–
LPSERLDFSMAEALNQEFLATRSN [PRPH]	4.24 ± 0.17	4.3 ± 0.2	–	–
ATQSHSISSSSFGAEPSAPGGGGS [RTN3]	5.19 ± 0.23	5.19 ± 0.093	–	–
PSFCPVQPCFFQDISMEIPQEFQK [SCAMP3]	3.64 ± 0.35	3.69 ± 0.21	–	–
GQGAMFRLPTDSHFPYDLHLRSQS [NEUROD6]	3.02 ± 0.3	3.11 ± 0.22	–	–
SLHCLLDQFDKDLPVYLKKDPAYF [DENND6A]	2.13 ± 0.41	2.23 ± 0.23	–	–
ERVEAFSDGVYAIVATLLILDICE [TMEM175]	3.05 ± 0.15	3.15 ± 0.22	–	–
VPDSDIKALTTLCDLADRELVVII [ESRRG]	2.53 ± 0.38	2.6 ± 0.45	–	–
